assay: yeast display, Sf9 membrane polyspecificity reagent, FACS + sequencing; frameworks hold sequencing errors
Method in brief: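 Nanobodies from a synthetic yeast display library (Saccharomyces cerevisiae BJ5465), induced 36–48 hours with galactose, were stained 1 hour at 4 °C with 10% biotinylated, detergent-solubilized Sf9 membrane reagent, enriched on streptavidin microbeads, then FACS-sorted. Anti-HA (expression) and streptavidin (reagent binding) fluorescence set low and high (top ~1%) gates. Polyreactivity labels come from the gate of origin. Genes were colony-PCR amplified, MiSeq 2 × 250 sequenced and filtered by CDR length.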

Sequence	polyreactivity (PSR sort gate)
QVQLVESGGGLVQAGGSLRLSCAASGSIFVIYTMGWYRQAPGKERELVAVITWSTGNTYYADSVKGRFTISRDNAKNTVYLQMNSLKPEDTAVYYCAARTTSRWRSCAYYYWGQGTQVTVSS	high polyreactivity
QVQLVESGGGLVQAGGSLRLSCAASGITFVHYVMGWYRQAPGKERELVAVITKGGARTSYADSVKGRFTISRDNAKNTVYLQMNSLKPEDTAVYYCAAREVYPLFTKYYYWGQGTQVTVSS	high polyreactivity
QVQLVVSGGGLVQAGGSLRLSCAASGRTFRSYAMGWYRQAPGKERELVAAISYGGGSTYYADSVKGRFTISRDNAKNTVYLQMNSLKPEDTAVYYCAAAVYKRGGYDYWGQGTQVTVSS	high polyreactivity
QVQLVESGGGLVQAGGSLRLSCAASGFIFWDYAMGLYRQAPGKERELVAAISDSGGDTYYADSVKGRFTISRDNAKNTVYFQINSLKPEDTAVYYCSADVELWVFRGQQYDYWGQGTQVTVSS	low polyreactivity
QVQHVESGGGLVQAGGSLRLSCAASGLIFYYYDMGWYRQPPGKERELVAAISYNGGTTYYSDSVKGRFTISRDNAKNTVYLQMNSLKPEDTAVYYCASEQLVSGYDYWGQGTQVTVSS	low polyreactivity
QVQLVESGGGLVQAGGSLRLSCAASGRIFRPNAMGWYRPAPGKERELVAAISYSGATTYYADSVKGRFTISRDNAKNTVYLQMNSLKPEVTAVYYCAAGGTSGQEFGYWGQGTQVTVSS	low polyreactivity
QVQLVESGGGLVQAGGSLRLICAASGRIFSRNAMGWYRQAPGKERELVAGISARGGRTYYADSVKGRFTISRDNAKNTVYLQMNSLKPEDTAVYYCNARTGYQDGTYGNDYWGQGTQVTVSS	high polyreactivity
QVQLVESGGGLVQAGGSLRLSCAASGFIFYKYAKGWYRQAPGKEREFVAAITWSGGNTYYADSVKGRFTISRDNAKNTVYLQMNSLKPEDTAVYYCAARDSKWGQGTQVTVSS	low polyreactivity
QVHLVESGGGLVQAGGSLRLSCAASGRTFDDYAMGWYRQAPGKERELVAAISSSGGSTYYADSVKGRFTISRDNAKNTVYLQMNSLKPEDTAVYYCAADYDWGYWYDYWGQGTQVTVSS	low polyreactivity
QVQLVESGGGLVQAGGSLRLSCAASGRIFSRYVMGWYRQAPGKERELVAAITSSGGRTYYADSVKGRFTISRDNAKNTVYLQMNSLNPEDTAVYYCNNAPWWRTSSDYEYWGQGTQVTVSS	high polyreactivity
QVQLVESGGGLVQAGGSLRLSCAASGSIFYIYVMGWYRQAPGKERELVAAISSGGTTNYADSVKGRFTISRDNAKNTVYLQMNSLIPEDTAVYYCAADVLIARYPGYSYEYWGQGTQVTVSS	low polyreactivity
QVQLVESGGGLGQAGGSLRLSCAASGSIFITYAMGWYRQAPGKERELVAAIRRGGRTNYADSVKGRFTISRDNAKNTVYLQMNSLKPEDTAVYYCAAEFRTGWPYYPDYAYDYWGQGSQVTVSS	low polyreactivity
QVQLVESGGGLVQAGGSLRLSSAASGGTFTKNAMGWYRQAPGKERELVAAISWRGTSTYYADSVKGRFSISRDNAKNTVYLQMNSLKPDDTAVYFCLPWVGYGRYKPGYKYDYWGQGTQVTVSS	high polyreactivity
QVQLVESGGGLVQAGRSLRLICAASGSIFDWYAMGWYRQAPGKEGELVAAISSGDSTYYADSVKGRFTISRDNAKNTVYLQMNSLKPEDTAVYYCAAVTKLSGIRYHYWGQGTQVTVSS	low polyreactivity
QVQLVESGGGLVQARRSLRLSCAASGFTVKRYAMGWYRPEPGKEREFVAAITRGGGSTYYADYVKGRFTISRDNAKNTVYLQMNSLKPEDTAVYYCNARSRSYVPYYYWGQGTQVTVSS	high polyreactivity
QVQLVVSGGGLVQAGGSIRLSCAASGRIFFYNAMGWYRQAPGKERELVAGISSGGGSTYYADSVKGRFTISRDNAKNTVYLQLNSLKPDDPAVYYCNKVVYSYSVGVGEYDYWGQGTQVTVSS	high polyreactivity
QVQLVESGGGLVQAGGSLRLSCAASGSTFPLYAMGWYRQAPGKERELVATISWGDGSTYYADSVKGRFTISRDTAKNTVYLQMNSLNPEETAVYYCAEDEYPDATTDATDKYYYWGQGTQVTVST	low polyreactivity

Source: the nanobody polyreactivity screen of Harvey et al. (2022)
